Publication doi:10.1101/655696
One block for each substance: values may come before it.

Legend:
[1] = molecular target: pre-30S particles from the ΔrbfA strain (BX41) (E. coli (endogenous in BX41)); experiment: ultrafiltration assay
[2] = molecular target: mature 30S ribosomal subunit (MRE600) (E. coli (endogenous in MRE600)) (UniProt P0AG67); experiment: ultrafiltration assay
[3] = molecular target: mature 30S ribosomal subunit (MRE600) (E. coli (endogenous in MRE600)) (UniProt P0AG67); experiment: co-sedimentation + other: ultrafiltration assay
[4] = molecular target: mature 30S ribosomal subunit (MRE600) (E. coli (endogenous in MRE600)) (UniProt P0AG67); experiment: co-sedimentation

average fold change in bound IF3 over background [1]: 1.9 fold
average fold change in bound IF3 over background [2]: 2.2 fold
Substance: Cy3-IF3 (from UniProt P0A707 1-180) (natural protein)

t1/2 of the complex [3]: > 30 min
half-life of the complex [1]: > 60 min
Substance: Cy5-RbfA (ribosome binding factor A labelled with Cy5 at position 2) (from UniProt P0A7G2 1-133) (natural protein)

decrease of Cy5-RbfA fluorescence in the pelleted fraction with 4 µM IF3 [4]: > 80%
Substance: Initiation factor 3 (IF3), wild type (from UniProt P0A707 1-180) (natural protein)
